Source: PMC3091828 (Biochemistry, 2011)
Each block holds one binder with its values, some of them ahead of it.

Target: MBP-parkin (UniProt O60260 1-465)
Experiment: fluorescence polarisation

Chain of MBP-parkin (O60260 whole entry): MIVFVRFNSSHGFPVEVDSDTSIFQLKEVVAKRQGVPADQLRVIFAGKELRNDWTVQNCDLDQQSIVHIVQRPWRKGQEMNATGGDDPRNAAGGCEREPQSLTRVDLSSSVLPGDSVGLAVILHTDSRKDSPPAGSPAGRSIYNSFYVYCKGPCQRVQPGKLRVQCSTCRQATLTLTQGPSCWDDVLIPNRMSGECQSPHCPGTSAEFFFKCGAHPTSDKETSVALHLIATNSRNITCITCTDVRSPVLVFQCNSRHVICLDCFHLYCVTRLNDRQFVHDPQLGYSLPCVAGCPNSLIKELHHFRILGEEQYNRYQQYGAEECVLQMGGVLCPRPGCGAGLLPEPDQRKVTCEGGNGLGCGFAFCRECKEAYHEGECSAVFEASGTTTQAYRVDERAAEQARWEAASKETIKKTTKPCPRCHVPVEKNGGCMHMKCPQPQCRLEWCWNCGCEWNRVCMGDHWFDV

- Kd: 15.5 µM
B1: CL-arrestin-1-F79C, bimane-labeled (natural protein)
chain: MKANKPAPNHVIFKKISRDKSVTIYLGKRDYIDHVERVEPVDGVVLVDPELVKGKRVYVSLTAAFRYGQEDIDVMGLSCRRDLYFSQVQVFPPVGASGATTRLQESLIKKLGANTYPFLLTFPDYLPSSVMLQPAPQDVGKSAGVDFEIKAFATHSTDVEEDKIPKKSSVRLLIRKVQHAPRDMGPQPRAEASWQFFMSDKPLRLAVSLSKEIYYHGEPIPVTVAVTNSTEKTVKKIKVLVEQVTNVVLYSSDYYIKTVAAEEAQEKVPPNSSLTKTLTLVPLLANNRERRGIALDGKIKHEDTNLASSTIIKEGIDKTVMGILVSYQIKVKLTVSGLLGELTSSEVATEVPFRLMHPQPEDPDTAKESFQDENFVFEEFARQNLKDAGEYKEEKTDQEAAMDE
modifications: monobromobimane label on the unique cysteine (F79C)

- Kd: 3.36 µM
B2: CL-arrestin-3-F88C, bimane-labeled (natural protein, UniProt P32120-2 1-409, looked up)
chain: MGEKPGTRVFKKSSPNSKLTVYLGKRDFVDHLDKVDPVDGVVLVDPDYLKDRKVFVTLTVAFRYGREDLDVLGLSFRKDLFIANYQACPPTPNPPRPPTRLQERLLRKLGQHAHPFFFTIPQNLPSSVTLQPGPEDTGKALGVDFEIRAFVAKSLEEKSHKRNSVRLVIRKVQFAPEKPGPQPSAETTRHFLMSDRSLHLEASLDKELYYHGEPLNVNVHVTNNSTKTVKKIKVSVRQYADIVLFSTAQYKVPVAQVEQDDQVSPSSTFSKVYTITPLLSNNREKRGLALDGKLKHEDTNLASSTIVKEGANKEVLGILVSYRVKVKLVVSRGGDVSVELPFVLMHPKPHDHIALPRPQSAAPETDAPVDTNLIEFETNYATDDDIVFEDFARLRLKGLKDEDYDDQFS
modifications: monobromobimane label on the unique cysteine (F88C)
